Tested on: NCI-H322 cells
Assay: NCI-H322 growth assay
Assay type: cell-based, human
Conditions: 120 hours, CellTiter-Glo
Protocol: Inhibition of EGFR-dependent cell growth was assessed by measuring viability of the EGFR over-expressing human tumor cell lines, NCI-H292 and NCI-H322 (American Type Culture Collection, cat. #CRL-1848 & #CRL-5806, respectively), following exposure to EGFR-binding FN3 domains. Cells were plated at 500 cells/well (NCI-H292) or 1,000 cells/well (NCI-H322) in opaque white 96-well tissue culture-treated plates (Nunc) in 1004/well of RPMI medium (Gibco) containing GlutaMAX™ and 10 mM HEPES, supplemented with 10% heat inactivated fetal bovine serum (Gibco) and 1% penicillin/streptomycin (Gibco), and allowed to attach overnight at 37° C. in a humidified 5% CO2 atmosphere. Cells were treated by addition of 54/well of phosphate-buffered saline (PBS) containing a concentration range of EGFR-binding FN3 domains. […] Viable cells were detected by addition of 754/well of CellTiter-Glo® reagent (Promega), followed by mixing on a plate shaker for 2 minutes, and incubation in the dark at room temperature for a further 10 minutes. Plates were read on a SpectraMax M5 plate reader (Molecular Devices) set to luminescence mode, with a read time of 0.5 seconds/well against a blank of medium only. […] IC50 values were determined by fitting data to the equation for a sigmoidal dose response with variable slope using GraphPad Prism 4 (GraphPad Software).

B1: P54AR4-47: EGFR-binding FN3 domain, SEQ ID NO: 20 (protein)
chain: LPAPKNLVVSEVTEDSLRLSWGYNGDHFDSFLIQYQESEKVGEAINLTVPGSERSYDLTGLKPGTEYTVSIYGVHNVYKDTNMRGLPLSAEFTT
modifications: EGFR binding FN3 domain
  IC50: 39 nM

From US11702475B2, “Cysteine engineered fibronectin type III domain binding molecules” (Janssen Biotech, Inc., priority 2013, dated 2023)
